Experiments:
[1] = target: fluoroacetate dehalogenase (FAcD) RPA1163 (Rhodopseudomonas palustris, UniProt Q6NAM1, F40A); experiment: isothermal microcalorimetry steady-state kinetics; type: biochemical; details: read-out: Fluoroacetate / Km; 100 mM Tris-H2SO4 pH 8.5, 30°C
[2] = target: fluoroacetate dehalogenase (FAcD) RPA1163 (Rhodopseudomonas palustris, UniProt Q6NAM1, W185F); experiment: isothermal microcalorimetry steady-state kinetics; type: biochemical; details: read-out: Fluoroacetate / Km; 100 mM Tris-H2SO4 pH 8.5, 30°C
[3] = target: fluoroacetate dehalogenase (FAcD) RPA1163 (Rhodopseudomonas palustris, UniProt Q6NAM1, Y219F); experiment: isothermal microcalorimetry steady-state kinetics; type: biochemical; details: read-out: Fluoroacetate / Km; 100 mM Tris-H2SO4 pH 8.5, 30°C
[4] = target: fluoroacetate dehalogenase (FAcD) RPA1163 (Rhodopseudomonas palustris, UniProt Q6NAM1, H155N); experiment: isothermal microcalorimetry steady-state kinetics; type: biochemical; details: read-out: Fluoroacetate / Km; 100 mM Tris-H2SO4 pH 8.5, 30°C
[5] = target: fluoroacetate dehalogenase (FAcD) RPA1163 (Rhodopseudomonas palustris, UniProt Q6NAM1, W156H); experiment: isothermal microcalorimetry steady-state kinetics; type: biochemical; details: read-out: Fluoroacetate / Km; 100 mM Tris-H2SO4 pH 8.5, 30°C
[6] = system: O=C(O)CCl; experiment: isothermal microcalorimetry steady-state kinetics; type: biochemical, Rhodopseudomonas palustris; details: 100 mM Tris-H2SO4 pH 8.5, 30°C
[7] = target: the molecule itself; experiment: crystal structure

Molecule | Km [6] [µM] | kcat [6] [s⁻¹] | kcat/Km [6] [M⁻¹ s⁻¹] | further results
O=C(O)CF [fluoroacetate] | – | – | – | Km [1]: 4400 ± 800 µM; Km [2]: 3300 ± 600 µM; Km [3]: 1700 ± 200 µM; Km [4]: 2900 ± 200 µM; Km [5]: 8000 ± 3000 µM
fluoroacetate dehalogenase (FAcD) RPA1163 (Rhodopseudomonas palustris CGA009; F40A) | 1500 ± 400 | 0.000483 ± 0.00015 | 0.32 | –
fluoroacetate dehalogenase (FAcD) RPA1163 (Rhodopseudomonas palustris CGA009; H155N) | 2000 ± 300 | 0.0883 ± 0.00833 | 45 | –
fluoroacetate dehalogenase (FAcD) RPA1163 (Rhodopseudomonas palustris CGA009; W156H) | 6000 ± 1000 | 0.00167 ± 0.000333 | 0.27 | –
fluoroacetate dehalogenase (FAcD) RPA1163 (Rhodopseudomonas palustris CGA009; W185F) | 1000 ± 300 | 0.00533 ± 0.000667 | 5 | –
fluoroacetate dehalogenase (FAcD) RPA1163 (Rhodopseudomonas palustris CGA009; Y219F) | 1000 ± 70 | 0.007 ± 0.000667 | 7 | –
fluoroacetate dehalogenase RPA1163 (wild type) (enzyme, Rhodopseudomonas palustris CGA009) MPDLADLFPGFGSEWINTSSGRIFARVGGDGPPLLLLHGFPQTHVMWHRVAPKLAERFKVIVADLPGYGWSDMPESDEQHTPYTKRAMAKQLIEAMEQLGHVHFALAGHDRGARVSYRLALDSPGRLSKLAVLDILPTYEYWQRMNRAYALKIYHWSFLAQPAPLPENLLGGDPDFYVKAKLASWTRAGDLSAFDPRAVEHYRIAFADPMRRHVMCEDYRAGAYADFEHDKIDVEAGNKIPVPMLALWGASGIAQSAATPLDVWRKWASDVQGAPIESGHFLPEEAPDQTAEALVRFFSAAP | – | – | – | stoichiometry N [7]: 2

— paper PMC3101105 (Journal of the American Chemical Society, 2011)
